The text below walks through data of article PMC6005685 (Journal of molecular recognition : JMR, 2017).

Series [1] concerns the molecule itself. Put plainly: SEC. (In general: SEC sorts molecules by how far they enter the pores of the column.)
Series [2] deals with the molecule itself. Put plainly: cross-linking.

B1: GST cleaved Grb7RA domain (domain or fragment)
chain: GSHVVKVYSEDGACRSVEVAAGATARHVCEMLVQRAHALSDETWGLVECHPHLALERGLEDHESVVEVQAAWPVGGDSRFVFRKNFAK
Regarding B1, the “stoichiometry N” value came out at 2 in series [1] and 3 in series [2].

B2: 6His-Grb7RA domain (domain or fragment, UniProt Q14451 102-187, looked up)
chain: HVVKVYSEDGACRSVEVAAGATARHVCEMLVQRAHALSDETWGLVECHPHLALERGLEDHESVVEVQAAWPVGGDSRFVFRKNFAK
With B2, the “stoichiometry N” value in series [1] came to 3; in series [2], 2.

For orientation: stoichiometry N means the number of molecules, sites or subunits per partner or assembly.
